Results on 8 molecules are retold here after patent US20210261648A1 (published 2021).

Changes are numbered by the printed parent chain.

For assay [1], the target named is T1, FcγRIIb (human, UniProt P31994 43-217).
T1 construct: extracellular domain; also called FcgRIIb; CD32B
T1 sequence (looked up): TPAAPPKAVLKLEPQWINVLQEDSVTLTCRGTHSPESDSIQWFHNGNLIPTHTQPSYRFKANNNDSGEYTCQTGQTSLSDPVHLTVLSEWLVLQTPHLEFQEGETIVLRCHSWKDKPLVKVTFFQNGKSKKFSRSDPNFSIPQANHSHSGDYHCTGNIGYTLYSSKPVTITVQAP
The experiment in a line: SPR (Biacore); parent = IL6R-B3/IL6R-L. A general note: In SPR one partner is held on a chip, and binding of the other changes the refractive index at the surface.

Assay [2] deals with T2, FcγRIIa type R (human, UniProt P12318 34-217).
T2 chain: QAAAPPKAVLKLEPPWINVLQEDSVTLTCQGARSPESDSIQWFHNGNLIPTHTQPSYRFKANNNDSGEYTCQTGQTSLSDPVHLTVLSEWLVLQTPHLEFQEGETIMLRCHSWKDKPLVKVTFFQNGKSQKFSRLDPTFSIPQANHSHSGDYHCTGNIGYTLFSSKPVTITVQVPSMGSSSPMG
The experiment in a line: SPR (Biacore); parent = IL6R-B3/IL6R-L.

In assay [3] the target is T3, FcγRIa (human, UniProt P12314 16-292).
T3 construct: Whole entry named; also called FcgRIa; CD64A
Kind of assay: SPR (Biacore), captured antibody, soluble FcγR.

For assay [4], the target named is T1, FcγRIIb. Kind of assay: SPR (Biacore), captured antibody, soluble FcγR.
Assay [5] concerns the target T2, FcγRIIa type R. Kind of assay: SPR (Biacore), captured antibody, soluble FcγR.

T3 sequence (P12314 16-292): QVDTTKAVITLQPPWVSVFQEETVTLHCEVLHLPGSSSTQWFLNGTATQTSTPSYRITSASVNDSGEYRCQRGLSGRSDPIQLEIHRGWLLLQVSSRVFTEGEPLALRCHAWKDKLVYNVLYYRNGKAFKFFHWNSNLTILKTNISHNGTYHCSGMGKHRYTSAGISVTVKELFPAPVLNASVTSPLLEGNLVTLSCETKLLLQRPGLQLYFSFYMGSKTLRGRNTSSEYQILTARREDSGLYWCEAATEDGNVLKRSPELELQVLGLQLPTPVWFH

B1: IL6R-BP500/IL6R-L (antibody, human IgG1, kappa)
heavy: QVQLQESGPGLVKPSETLSLTCAVSGHSISHDHAWSWVRQPPGEGLEWIGFISYSGITNYNPSLQGRVTISRDNSKNTLYLQMNSLRAEDTAVYYCARSLARTTAMDYWGEGTLVTVSSASTKGPSVFPLAPSSKSTSGGTAALGCLVKDYFPEPVTVSWNSGALTSGVHTFPAVLQSSGLYSLSSVVTVPSSSLGTQTYICNVNHKPSNTKVDKKVEPKSCDKTHTCPPCPAPELLGDDSVFLFPPKPKDTLMISRTPEVTCVVIDVAEEDGEVKFNWYVDGVEVHNAKTKPREEQDNSTYRVVSVLTVLHQDWLNGKEYKCKVSNKALPAPIEKTISKAKGQPREPQVYTLPPSRDELTKNQVSLTCLVKGFYPSDIAVEWESNGQPENNYKTTPPVLDSDGSFFLYSKLTVDKSRWQQGNVFSCSVMHEALHNHYTQESLSLSP
light: not shown
notes: Alterations in EU numbering, introduced into IL6R-B3
By Kd is commonly meant the free concentration of one partner at which half of the binding sites on the other are occupied at equilibrium, for simple one-to-one binding. Lower therefore signals tighter binding. As to B1, the “KD(IIb) of the parent polypeptide/KD(IIb) of the altered polypeptide” value (“KD(IIb)” for short) in assay [1] is 128 fold. Further, the “KD(IIaR) of the parent polypeptide/KD(IIaR) of the altered polypeptide” value (“KD(IIaR)” below) in assay [2] amounted to 1.5 fold. Also, the Kd in assay [3] came out at 2.3 nM; in assay [4], 24 nM; in assay [5], 720 nM.

B2: IL6R-BP504/IL6R-L (antibody, human IgG1, kappa)
heavy: B1 heavy with E235D, E274P, D298Y
light: not shown
notes: as for B1
B2: the “KD(IIb)” value in assay [1] was found to be 128 fold. For the same molecule, the “KD(IIaR)” value in assay [2] stood at 2.4 fold. Further, the Kd in assay [3] stood at 1.4 nM; in assay [4] it was 24 nM; in assay [5], 450 nM.

B3: IL6R-BP508/IL6R-L (antibody, human IgG1, kappa)
heavy: B1 heavy with E235D, E274P
light: not shown
notes: as for B1
On to B3, for which, in assay [1], the “KD(IIb)” value is 149 fold. The “KD(IIaR)” value in assay [2] is 2 fold. Moreover, the Kd in assay [3] is 1.4 nM; in assay [4], 21 nM; in assay [5], 540 nM.

B4: IL6R-BP505/IL6R-L (antibody, human IgG1, kappa)
heavy: B1 heavy with E235D, E274D, D298Y
light: not shown
notes: as for B1
In the case of B4, the “KD(IIb)” value in assay [1] amounted to 145 fold. In addition, the “KD(IIaR)” value in assay [2] was determined as 2.6 fold. The equilibrium dissociation constant (Kd) in assay [3] was 1.1 nM; in assay [4], 21 nM; in assay [5] it was 430 nM.

B5: IL6R-BP559/IL6R-L (antibody, human IgG1, kappa)
heavy: B1 heavy with D239G, E274D
light: not shown
notes: as for B1
On to B5, for which the “KD(IIb)” value in assay [1] is 110 fold. Further, the “KD(IIaR)” value in assay [2] was determined as 0.7 fold. Besides, the Kd in assay [3] is 1.1 nM; in assay [4] it was 28 nM; in assay [5], 1600 nM.

B6: IL6R-BP509/IL6R-L (antibody, human IgG1, kappa)
heavy: B1 heavy with E235D, E274D
light: not shown
notes: as for B1
Take B6: the “KD(IIb)” value in assay [1] was 174 fold. The “KD(IIaR)” value in assay [2] was found to be 2.1 fold. Also, the Kd in assay [3] came to 1.1 nM; in assay [4], 18 nM; in assay [5] it was 520 nM.

B7: IL6R-BP549/IL6R-L (antibody, human IgG1, kappa)
heavy: B1 heavy with I266V, A269G, D298Y, A332R
light: not shown
notes: as for B1
As to B7, the “KD(IIb)” value in assay [1] stood at 196 fold. For the same molecule, the “KD(IIaR)” value in assay [2] amounted to 1.9 fold. Moreover, the values for the Kd in assay [3], in assay [4] and in assay [5] were 18 nM, 16 nM and 570 nM, respectively.

B8: IL6R-BP501/IL6R-L (antibody, human IgG1, kappa)
heavy: B1 heavy with D298Y
light: not shown
notes: as for B1
Consider B8, for which the “KD(IIb)” value in assay [1] is 123 fold. In assay [2], the “KD(IIaR)” value turned out to be 1.7 fold. The Kd turned out to be 2.1 nM in assay [3], 25 nM in assay [4] and 630 nM in assay [5].
